Assay results: publication PMC9001643 (Scientific Reports, 2022)

Target: the molecule itself
Assay: crystal structure; His6-dmJMJD7.Mn(II).ligand complexes (2OG, succinate, N-oxalylglycine, 2,4-PDCA, N-oxalyl-D-alanine, N-oxalyl-D-phenylalanine); sitting drops at 25 °C, 0.1 M Bis-Tris pH 5.4, 0.3 M magnesium chloride, 18-23% PEG 3350; two molecules per asymmetric unit, space group P2_(1)

B1: Drosophila melanogaster Jumonji domain-containing 7 (His6-dmJMJD7) (enzyme, UniProt Q9VU77 1-316, looked up)
chain: MSEVERALDVLLQEAEELCIGSSVVELDRIPTALEFCREFYSKNQPVVIRKALNWPAIGKWTPKYLIEALGDRSVDVAITPNGYADGLATQNGQEYFVLPLETKMKLSEVVRRLDDPTGAVHYIQKQNSNLSVDLPELAADLRVSDLDFAQQSFNKPPDAVNFWLGDERAVTSMHKDPYENVYCVISGHKDFVLIPPHQLSCVPRGIYPTGVYKTSDSGQFYIEPLRDEEGSDQFTEWVSVDPLSPDLAKYPEYARAKPLKVRVHAGDILYLPNYWFHHVSQSHKCIAVNFWYDLDYDSRYCYYRMLEQMTSARSG
notes: JMJD7 of Drosophila melanogaster, full length, aa 1-316, UniProt Q9VU77, cloned into pET28a; Homodimer in the crystals; the two monomers are covalently linked by a disulfide bond Cys37-Cys37'; Crystallised with Mn(II) in place of Fe(II) and with 2OG, succinate or a 2OG analogue; also called JMJD7_DROME; not shown: His6, N-terminal, kept
  stoichiometry N: 2
